For test [1], the target named is HLA-A*01:01. Nature of the test: IEDB peptide-MHC binding, purified MHC/competitive/fluorescence; filed as Kd, often an IC50 or EC50 that approximates it; ≥ and ≤ were set here for values at or beyond the usual limits of such assays.
In test [2] the target is HLA-A*26:01. The description is as above.
For test [3], the target named is HLA-B*15:01. The experiment in a line: IEDB peptide-MHC binding, purified MHC/direct/fluorescence; filed as Kd, often an IC50 or EC50 that approximates it; ≥ and ≤ were set here for values at or beyond the usual limits of such assays.
Another test has as its target HLA-A*24:03. The description is as above.
A further test has as its target HLA-A*11:01. The description is as above. Particulars: source organism: Vibrio vulnificus.
The target in test [4] is HLA-A*02:01. The test is described as above.
Test [5] concerns the target HLA-A*69:01. The test is described as above.
Test [6] has as its target HLA-B*07:02. The test is described as above.
Test [7] concerns the target HLA-A*01:01. Described as above.
The next test deals with HLA-B*40:01. The test is described as above.
For test [8], the target named is HLA-B*08:01. Described as above.
For the next test, the target named is HLA-B*58:01. The description is as above.
The target of test [9] is HLA-A*26:01. The description is as above.
The next test deals with HLA-A*30:01. The description is as above.
For test [10], the target named is HLA-A*03:01. Described as above.
The target in test [11] is HLA-B*07:02. Nature of the test: IEDB peptide-MHC binding, purified MHC/competitive/fluorescence; ≥ and ≤ were set here for values at or beyond the usual limits of such assays.
Test [12] concerns the target HLA-B*08:01. Described as above.
Test [13] has as its target HLA-A*02:01. Described as above. Conditions: source organism: Zaire ebolavirus.
Test [14] concerns the target HLA-B*15:01. The test is described as above.
Another test addresses HLA-A*24:02. The test is described as above.
In test [15] the target is HLA-A*03:01. The experiment in a line: IEDB peptide-MHC binding, purified MHC/competitive/fluorescence; filed as Kd, often an IC50 or EC50 that approximates it; ≥ and ≤ were set here for values at or beyond the usual limits of such assays. Conditions: source organism: Escherichia coli O157:H7 str. Sakai.
The target of test [16] is HLA-B*15:01. The test is described as above. Particulars: source organism: Zaire ebolavirus.
Another test deals with HLA-B*39:01. Described as above. Particulars: source organism: Zaire ebolavirus.
The target of test [17] is HLA-A*02:01. The description is as above. Conditions: source organism: Zaire ebolavirus.
The target of test [18] is HLA-A*69:01. The test is described as above. Particulars: source organism: Zaire ebolavirus.
A further test deals with HLA-B*27:03. The test is described as above. Conditions: source organism: Zaire ebolavirus.
For another test, the target named is HLA-B*15:17. The test is described as above. Conditions: source organism: Zaire ebolavirus.
For another test, the target named is HLA-B*18:01. The description is as above. Particulars: source organism: Zaire ebolavirus.
The target of the next test is HLA-B*46:01. The test is described as above. Conditions: source organism: Zaire ebolavirus.
A further test concerns the target HLA-B*57:01. The description is as above. Conditions: source organism: Zaire ebolavirus.
A further test concerns the target HLA-B*51:01. Described as above. Conditions: source organism: Zaire ebolavirus.
In a further test the target is HLA-A*29:02. Nature of the test: IEDB peptide-MHC binding, purified MHC/direct/fluorescence; filed as Kd, often an IC50 or EC50 that approximates it; ≥ and ≤ were set here for values at or beyond the usual limits of such assays. Conditions: source organism: Zaire ebolavirus.
A further test concerns the target HLA-A*02:19. Described as above. Particulars: source organism: Zaire ebolavirus.
The target in a further test is HLA-A*02:12. Described as above. Conditions: source organism: Zaire ebolavirus.
A further test concerns the target HLA-A*02:16. The test is described as above. Particulars: source organism: Zaire ebolavirus.
The next test concerns the target HLA-A*02:03. The description is as above. Particulars: source organism: Zaire ebolavirus.
For a further test, the target named is HLA-A*02:11. The description is as above. Conditions: source organism: Zaire ebolavirus.
A further test has as its target HLA-A*68:02. Described as above. Particulars: source organism: Zaire ebolavirus.
The next test concerns the target HLA-A*23:01. Described as above. Conditions: source organism: Zaire ebolavirus.
Another test addresses HLA-B*27:05. The test is described as above. Conditions: source organism: Escherichia coli 536.
Setting [19] is: source organism: Escherichia coli.
Setting [20] is: source organism: Vibrio vulnificus YJ016.
Setting [21] is: source organism: Vibrio vulnificus.
Where [22] appears, read: source organism: Vaccinia virus.
The mark [23] stands for this setting: source organism: Zaire ebolavirus.
Where [24] appears, read: source organism: Sudan ebolavirus.
Where [25] appears, read: source organism: Bacillus anthracis str. A0488.
[26] abbreviates: source organism: Escherichia coli 536.
[27] abbreviates: source organism: Escherichia coli O6.
Where [28] appears, read: source organism: Vaccinia virus Copenhagen.

As usually defined, the Kd is the concentration at which binding is half-saturated. Read a low Kd as higher affinity. Turning to AAPLMQSLY, the figures for the equilibrium dissociation constant (Kd) with HLA-A*01:01 [1] (setting [19]) and in the test with HLA-A*26:01 [2] (setting [19]) were not below 20 µM and 1.33 µM, respectively.

For DAYGFHNYK, the equilibrium dissociation constant (Kd) with HLA-B*15:01 [3] (setting [20]) was not below 20 µM; in the test with HLA-A*24:03 (setting [20]) it was not below 20 µM; with HLA-A*11:01, 0.13 µM; with HLA-A*02:01 [4] (setting [20]) it was not below 20 µM; in the test with HLA-A*69:01 [5] (setting [20]), not below 20 µM; in the test with HLA-B*07:02 [6] (setting [20]), not below 20 µM. Further, the equilibrium dissociation constant (Kd) was not below 20 µM with HLA-A*01:01 [7] (setting [20]); not below 20 µM with HLA-B*40:01 (setting [20]); not below 20 µM in the test with HLA-B*08:01 [8] (setting [20]); not below 20 µM with HLA-B*58:01 (setting [20]); not below 20 µM in the test with HLA-A*26:01 [9] (setting [20]); 1.11 µM in the test with HLA-A*30:01 (setting [21]). This sequence also came in with an equilibrium dissociation constant (Kd) with HLA-A*03:01 [10] (setting [21]) of 0.216 µM.

As a reminder, the IC50 is the concentration that gives 50% inhibition. Higher therefore signals a need for much substance. Take EPPLVRHAC: the values for the half-maximal inhibitory concentration (IC50) with HLA-B*07:02 [11] (setting [22]) and in the test with HLA-B*08:01 [12] (setting [22]) were not below 162 µM and not below 521 µM, respectively.

Regarding ERLAKLTEA, the IC50 in the test with HLA-A*02:01 [13] is not below 175 µM; with HLA-B*08:01 [12] (setting [23]), not below 106 µM.

FLLIHQGMH: the IC50 was not below 230 µM with HLA-B*15:01 [14] (setting [23]), 9.52 µM with HLA-A*02:01 [13] and not below 230 µM in the test with HLA-B*08:01 [12] (setting [23]).

As to FLLQRWGGT, the results for the IC50 with HLA-A*02:01 [13] and with HLA-B*08:01 [12] (setting [23]) were 8.24 µM and 6.33 µM, respectively.

Turning to FLRYLLFGI, the half-maximal inhibitory concentration (IC50) is not below 1010 µM with HLA-B*07:02 [11] (setting [22]), 16.5 µM in the test with HLA-A*24:02 (setting [22]) and not below 193 µM in the test with HLA-B*08:01 [12] (setting [22]).

Consider GFPRCRYVH, for which the values for the IC50 with HLA-B*07:02 [11] (setting [24]), in the test with HLA-A*24:02 (setting [24]) and in the test with HLA-B*08:01 [12] (setting [23]) were not below 82.4 µM, 1.22 µM and 12.3 µM, respectively.

With GSQYVSLAY, the Kd with HLA-A*01:01 [1] (source organism: Escherichia coli O157:H7 str. Sakai) worked out at 0.0321 µM; in the test with HLA-A*03:01 [15], 4.5 µM.

Consider LLDNSMFTY, for which, in the test with HLA-A*01:01 [1] (setting [25]), the equilibrium dissociation constant (Kd) was 0.0038 µM. That is a single-digit nanomolar value.

LSDAIFDDL: the Kd with HLA-B*15:01 [16], with HLA-B*39:01, with HLA-A*02:01 [17], in the test with HLA-A*69:01 [18], with HLA-B*27:03 and in the test with HLA-B*15:17 was not below 20 µM throughout. The Kd in the test with HLA-B*18:01, with HLA-B*46:01, in the test with HLA-B*57:01, with HLA-A*26:01 [2] (setting [23]), with HLA-B*51:01 and with HLA-A*24:03 (setting [23]) was not below 20 µM each time. Besides, the Kd in the test with HLA-A*29:02 was not below 20 µM; in the test with HLA-A*02:19, not below 20 µM; in the test with HLA-A*02:12, not below 20 µM; with HLA-A*02:16, not below 20 µM; with HLA-A*01:01 [7] (source organism: Sudan ebolavirus - Maleo (1979)), 1.85 µM; with HLA-A*02:03 it was not below 20 µM. The Kd with HLA-A*02:11, with HLA-A*68:02, with HLA-A*23:01 and with HLA-A*03:01 [10] (setting [23]) was not below 20 µM in each case.

Take RYICPVQQI: the equilibrium dissociation constant (Kd) is not below 20 µM in the test with HLA-B*15:01 [3] (setting [26]); 0.00253 µM with HLA-A*24:03 (setting [27]); not below 20 µM with HLA-A*02:01 [4] (setting [26]); not below 20 µM with HLA-A*69:01 [5] (setting [26]); not below 20 µM in the test with HLA-B*07:02 [6] (setting [26]); not below 20 µM with HLA-A*01:01 [7] (setting [26]). The dissociation constant Kd with HLA-B*40:01 (setting [26]) is not below 20 µM; with HLA-B*08:01 [8] (setting [26]) it was not below 20 µM; with HLA-B*58:01 (setting [27]) it was 9.09 µM; with HLA-B*27:05 it was not below 20 µM; in the test with HLA-A*26:01 [9] (setting [26]) it was not below 20 µM; in the test with HLA-A*30:01 (setting [27]) it was 4.19 µM. This sequence came in with a dissociation constant (Kd) with HLA-A*03:01 [10] (setting [26]) not below 20 µM.

Sequence TLDSEDGLY gave a Kd in the test with HLA-A*01:01 [1] (setting [25]) of 0.0016 µM.

On to YANCSSISI, for which the half-inhibitory concentration (IC50) is 24.8 µM in the test with HLA-B*15:01 [14] (setting [28]), not below 175 µM with HLA-B*07:02 [11] (setting [28]), 1.33 µM with HLA-A*24:02 (setting [28]) and not below 1080 µM in the test with HLA-B*08:01 [12] (setting [28]).

YRNKPSIAT gave a half-maximal inhibitory concentration (IC50) in the test with HLA-B*08:01 [12] (setting [22]) not below 130 µM.

Values taken from the Immune Epitope Database (IEDB).
